The values below come from patent US20070066802A1.

Holding throughout (experiment): cell-based or functional assay
The target in assay [1] is K^b-CD28[L→G]-ζ receptor (mouse) (UniProt P31041).
Assay [2] concerns the target K^b-CD28[L→G]-ζ receptor pulsed with ovalbumin 257-264 peptide (SIINFEKL) (mouse) (UniProt P31041).
In assay [3] the target is K^b-CD28-ζ receptor pulsed with ovalbumin 257-264 peptide (SIINFEKL) (mouse) (UniProt P31041).

Take “clone AF6-88.5 anti-mouse H-2K^b (antibody)”: in assay [1], the IFN-γ release by RMTC is above 3.5 fold.
With “OT-1 TCR (rearranged ovalbumin 257-264/H-2K^b restricted TCR)”, in assay [2], the in vivo depletion of Vα2+ OT-1 cells from the LN, peptide-pulsed against unpulsed RMTC was found to be 98%; the in vivo depletion of Vα2+ OT-1 cells from the spleen, peptide-pulsed against unpulsed RMTC stood at 99%; the lysis of OT-1 target cells, peptide concentration for equivalent lysis against K^b-CD28-ζ RMTC (fold lower peptide concentration) is 5 to 20; the specific lysis of OT-1 T cells, RMTC dose for equivalent lysis against K^b-CD28-ζ RMTC (fold fewer RMTC) lay in the range of 3 to 9. In assay [3], this substance yielded an in vivo depletion of Vα2+ OT-1 cells from the LN, peptide-pulsed against unpulsed RMTC of 93% and an in vivo depletion of Vα2+ OT-1 cells from the spleen, peptide-pulsed against unpulsed RMTC of 96%.
